According to the supplement of paper PMC10126150:
± gives the standard deviation of the averaged measurements.

Each sequence was assayed on ATP (assay: switch fluorescence ratio, 500 uM ATP over buffer (Cy3 cluster intensity, sum of 5 cycles each) (fold (ratio)); higher = stronger signal-on switching upon ATP binding; sequences stand for … in TCGTCGGCAGCGTCAGATGTGTATAAGAGACAGTTTTTTTTTTTTTTTTTTTTTTTTT…TC). Conditions: aptamer strand: ATP DNA aptamer (quencher-CACCTGGGGGAGTATTGCGGAGGAAGG + anchor), 100 nM annealed; ATP concentration: 500 uM.
Outline: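 Five buffer/ATP imaging cycles were run on Cy3-labelled switching-strand clusters on a modified Illumina MiSeq flow-cell, with NaOH stripping and re-annealing between cycles. In each cycle, clusters annealed to 100 nM quencher-labelled ATP aptamer were imaged in selection buffer, then after 15 min with 500 uM ATP at 22 °C. Per cluster, the fluorescence ratio is summed target-cycle over summed buffer-cycle Cy3 intensity, averaged per switch-domain sequence. Only clusters within 100-1000 RFU were kept.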
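Also: ATP exposure 15 min at 22 °C before imaging.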

Sequence	switch fluorescence ratio
TGGGTAATGC	1.27 ± 0.13
GATCACAGGG	1.13 ± 0.01
CGGAAAAATC	1.53 ± 0.76
AACAGTAGCA	1.03 ± 0.019
AACGAATTAC	1.79 ± 0.16
ATAAACGGCG	1.01 ± 0.024
TAGGTTGTAT	0.978 ± 0.018
CAATAGTTGG	0.993 ± 0.01
TCCTGACGTA	1.11 ± 0.022
AGTAAGTTGG	0.967 ± 0.022
CTGGGTGTTC	1.05 ± 0.035
TTTGGCGGAA	1.04 ± 0.011
GCTCGCGTGG	0.956 ± 0.025
CGGGTGCACT	0.98 ± 0.027
AGGATAAGCT	1.1 ± 0.17
TATCGTTGTT	1 ± 0.021
AAATCGATGG	0.9987 ± 0.0023
GACGTATCGT	0.989 ± 0.032
TGACTTAGTT	0.999 ± 0.051
TTCCTCTGTT	1.37 ± 0.26
GCTATTAAGT	0.9695 ± 0.003
GGGTGAAATA	1.02 ± 0.019
TCCTGATGGC	0.985 ± 0.016

Sequence	switch fluorescence ratio
CTTTTAGTGG	0.9714 ± 0.0059
TATTACGAAA	1.1 ± 0.032
CAGGGAACGG	1.05 ± 0.022
ATCTTCCCCC	1.55 ± 0.016
AGTGAGCTAT	1.01 ± 0.018
TTTGCATATA	1.09 ± 0.11
CGGGGATGAA	1.01 ± 0.063
TATCCTTAGG	1.01 ± 0.059
TGTTTTATCG	0.999 ± 0.028
CGGTGCCGGT	0.9841 ± 0.0091
TTTTACGTCA	1.21 ± 0.073
TGGCGCTTTT	0.9976 ± 0.0079
TTTTGGGGCG	1.04 ± 0.055
AGCATGTATC	1.07 ± 0.012
TAGGAAGTCG	0.995 ± 0.047
TGTTGAAAGG	0.995 ± 0.046
GTAGTTACTT	0.995 ± 0.051
CGGATGTTCA	1.001 ± 0.0059
ATTGTGAAAT	0.999 ± 0.0025
CTTTCCCTTT	1.01 ± 0.03
CTTATCATGT	0.981 ± 0.034
ATCGTGAGGC	1.05 ± 0.022
TAAATTAAGT	1.03 ± 0.029

Sequence	switch fluorescence ratio
GCCAGCAGCT	0.967 ± 0.014
GATTCCGTGT	1.01 ± 0.031
TTGTTTTGAT	0.984 ± 0.035
GTTGTGTGTA	0.9921 ± 0.0082
TTCGACTTTT	0.988 ± 0.051
TTTCGGACCT	1.3458 ± 0.00061
AAGGTAGGCC	0.96 ± 0.016
GCAAAAAGGC	1.03 ± 0.015
GTAATTGGTG	0.992 ± 0.014
AGGGGATAGG	0.98 ± 0.046
AAACATATAT	1.018 ± 0.0098
GGGGACAAAT	1.05 ± 0.0011
CGGTTGAGTA	0.9982 ± 0.0043
GCTTGCATTT	1.02 ± 0.035
TGGGAAAAGA	0.983 ± 0.017
TGTTTTATG	1.007 ± 0.0086
ATGAGCCACT	0.994 ± 0.03
CATATGGGGG	1.02 ± 0.046
GACCGGGAGC	0.995 ± 0.011
TTGGTTCCGC	1.53 ± 0.48
GGGGGGCTTA	0.999 ± 0.018
TTTTCCCGGA	1.013 ± 0.0028
GGGGTCTGCG	1.03 ± 0.059

Sequence	switch fluorescence ratio
GGATTATCGG	0.976 ± 0.023
TCCGGCGGGA	1.26 ± 0.32
GGAAGGCCTA	0.954 ± 0.017
TGAATCCGGG	1 ± 0.038
AAAAGGTTTC	1.02 ± 0.024
AATGGAATTG	0.9965 ± 0.005
TACGTATGAA	1.17 ± 0.014
ATAGGGGCGG	0.978 ± 0.035
AGACGCAGTG	0.9834 ± 0.0038
CTGGGGCGCT	1.028 ± 0.0032
CGTAACCTTA	1.05 ± 0.15
AAGTTTGTTG	0.986 ± 0.023
TTTCTCTGTT	1.02 ± 0.011
AACAATATTG	1.02 ± 0.028
ACTGGGATGG	1.031 ± 0.0089
AGTTGCCGCG	0.996 ± 0.012
AAATCAGTGG	0.998 ± 0.031
TGATTATGGG	0.9781 ± 0.0063
CTCTTGGGCT	0.971 ± 0.089
GCTATTAGTT	1.04 ± 0.017
AGTTATGTGG	1 ± 0.056
GCTTCCTCTA	1.74 ± 1
TTATCTCGTA	0.99 ± 0.013

Sequence	switch fluorescence ratio
TCTCATTCTT	1.03 ± 0.028
TTGAGCTAGG	1.01 ± 0.023
TTCGGAAGGG	0.956 ± 0.025
GGGTTAAGTC	0.983 ± 0.028
TAATTGCTCG	1.062 ± 0.0041
CTGATACTGG	0.997 ± 0.045
TGAAATCAGT	1.01 ± 0.018
CTGGGCCCGG	1.16 ± 0.27
CGCTATGGGA	1.02 ± 0.026
TGGGGTACTA	0.975 ± 0.069
TGATTCGGTT	1.037 ± 0.0089
GTCATTAACT	1.02 ± 0.027
TAGGGCACCC	0.988 ± 0.058
GAGGCCGGGG	0.9956 ± 0.0026
CGGAAAAAGT	0.97 ± 0.013
ATTTAAGAAT	1.022 ± 0.0061
TGGCGTAGGT	1.005 ± 0.0083
AAGCGTGAGG	1.04 ± 0.047
ACTAGGGACA	1.24 ± 0.028
GCGCAGGCTT	0.986 ± 0.022
CCTAAAGTAG	1.017 ± 0.0071
GGGTTTTTTG	1 ± 0.031
TGAGCTTGGG	0.99 ± 0.022

Sequence	switch fluorescence ratio
GGTTTCCTTT	0.992 ± 0.021
ACAGTTCGGG	0.9653 ± 0.0051
AAAGAGTGAA	0.9989 ± 0.009
GCTTTTGGTG	1.02 ± 0.032
GCAGGAGGGG	0.965 ± 0.074
GACGAGTGTG	0.98731 ± 0.00011
TATAATCCTG	0.992 ± 0.035
CCTTTTGTTA	0.989 ± 0.02
GGGGGCAAGA	0.999 ± 0.06
TAATGGAGGC	1.05 ± 0.13
CGGGTAGCT	1.01 ± 0.03
AAGTTGGGTA	0.978 ± 0.024
GGTACCAGTT	1.01 ± 0.012
TGCGGGGGGC	0.991 ± 0.012
GATCTCGTGG	1.01 ± 0.056
TTGTGTCGGG	0.998 ± 0.02
ATAATTATGC	1.025 ± 0.0052
GGATTTGTGG	0.978 ± 0.023
TTACGGTTGC	0.9665 ± 0.0024
GAGCAACTGA	1.022 ± 0.0018
TCATAATTAG	1 ± 0.0068
AGAAGGTGCC	1.05 ± 0.049
GAGAGAATAG	1.03 ± 0.034

Sequence	switch fluorescence ratio
TGAGGAATGG	0.9987 ± 0.0036
TCTGTCCCGC	1.16 ± 0.11
CGATGGATGG	1.01 ± 0.037
TTGCCTGTGT	1.039 ± 0.0012
AATATTTTGT	0.9833 ± 0.004
CGGCAATGGT	1.87 ± 1.1
GTCAGAACTA	0.9786 ± 0.0095
TCAGTCGGAT	0.9768 ± 0.0078
CAGGGGATGT	0.985 ± 0.013
CTGCGAGGAT	1.01 ± 0.034
CAATGGACGT	0.99 ± 0.029
TTAGGGATAT	1.22 ± 0.42
ACTTAAAATG	1.06 ± 0.082
ACGTTGTGAG	0.969 ± 0.037
AAAGGGCGCA	1.02 ± 0.017
ACGAGAACGA	1.05 ± 0.021
GAGGCGGATG	0.997 ± 0.028
CTAATTGCCA	0.994 ± 0.017
TCATTTGATA	1.03 ± 0.035
